These results are taken from patent publication US20230272056A1 (Merck Sharp & Dohme, published 2023).

Assay [1] deals with T1, human LAP-TGFB1 Fc fusion (human).
T1 construct: also called human LAP-TGFβ1-Fc; human LAP-TGFβ-Fc isoform 1
Kind of assay: SPR. On the technique in general: Surface plasmon resonance follows binding to a sensor surface in real time, without labels.

In assay [2] the target is T2, human LAP-TGFB2 Fc fusion (human).
T2 construct: also called human LAP-TGFβ2; LAP-TGFβ isoform 2
T2 sequence (chain, as listed by the source limits assumed): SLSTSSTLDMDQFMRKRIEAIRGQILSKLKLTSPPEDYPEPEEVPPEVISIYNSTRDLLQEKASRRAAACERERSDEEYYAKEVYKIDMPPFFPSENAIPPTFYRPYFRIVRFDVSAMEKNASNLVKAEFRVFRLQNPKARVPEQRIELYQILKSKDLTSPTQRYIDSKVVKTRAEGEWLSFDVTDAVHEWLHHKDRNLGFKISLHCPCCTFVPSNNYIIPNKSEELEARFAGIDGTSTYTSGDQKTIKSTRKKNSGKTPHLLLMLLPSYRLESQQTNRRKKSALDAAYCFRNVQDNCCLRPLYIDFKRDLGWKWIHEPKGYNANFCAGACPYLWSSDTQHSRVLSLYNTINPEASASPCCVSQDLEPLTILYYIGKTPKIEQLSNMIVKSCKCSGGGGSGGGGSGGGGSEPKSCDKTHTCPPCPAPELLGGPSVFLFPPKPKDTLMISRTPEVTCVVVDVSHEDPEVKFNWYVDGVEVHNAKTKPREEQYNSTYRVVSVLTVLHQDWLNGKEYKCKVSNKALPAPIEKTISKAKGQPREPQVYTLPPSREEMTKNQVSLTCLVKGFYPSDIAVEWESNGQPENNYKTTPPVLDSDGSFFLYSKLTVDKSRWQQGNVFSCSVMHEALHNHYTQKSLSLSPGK
Kind of assay: SPR pH 7.4.

The target of assay [3] is T3, human LAP-TGFB3 Fc fusion (human).
T3 construct: also called human LAP-TGFβ3; LAP-TGFβ isoform 3
T3 sequence (chain, as listed by the source limits assumed): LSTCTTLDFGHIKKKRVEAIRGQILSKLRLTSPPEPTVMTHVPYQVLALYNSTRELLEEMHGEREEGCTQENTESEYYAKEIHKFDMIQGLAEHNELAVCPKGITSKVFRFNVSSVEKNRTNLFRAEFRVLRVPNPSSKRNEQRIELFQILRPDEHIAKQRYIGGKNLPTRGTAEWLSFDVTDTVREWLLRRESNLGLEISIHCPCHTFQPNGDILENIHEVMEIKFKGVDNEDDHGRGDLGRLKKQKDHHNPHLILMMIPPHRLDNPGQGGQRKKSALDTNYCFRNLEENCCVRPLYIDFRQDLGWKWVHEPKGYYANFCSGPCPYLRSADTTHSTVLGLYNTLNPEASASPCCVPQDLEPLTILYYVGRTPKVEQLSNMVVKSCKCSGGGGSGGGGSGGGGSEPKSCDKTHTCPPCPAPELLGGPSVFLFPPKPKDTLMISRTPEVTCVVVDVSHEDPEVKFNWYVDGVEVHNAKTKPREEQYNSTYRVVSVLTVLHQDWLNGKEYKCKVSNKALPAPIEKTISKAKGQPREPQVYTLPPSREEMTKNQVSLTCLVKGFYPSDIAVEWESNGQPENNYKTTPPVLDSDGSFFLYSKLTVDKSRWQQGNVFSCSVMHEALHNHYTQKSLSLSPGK
Kind of assay: SPR pH 7.4.

Assay [4] addresses T1, human LAP-TGFB1 Fc fusion. Put plainly: SPR pH 7.4, antigen captured on Fab 54BLH. The text has this: (§1) A Series S C1 sensor chip (Cytiva, catalog BR100535) was immobilized with low densities of high affinity Fab 54BLH on a Biacore T200 instrument with 1×HBS-EP+(Teknova, catalog H8022). This surface served as a monovalent capture surface for a low-density layer of heterodimer human LAP-TGFβ1 complex leaving the second binding site exposed for monovalent kinetic binding analysis with both mAbs and Fabs. Immobilized flow cell 1 served as the reference and flow cells 2, 3 and 4 were used to evaluate the binding interaction between human LAP-TGFβ1 and yeast display mutant mAbs and Fabs.
(§2) Approximately 15-25 RU of human LAP-TGFβ1-Fc was captured to the Fab capture surface followed by injection of 1:3 serially diluted Fabs and mAbs from 6 nM to 0.07 nM (Fabs: 54BLH, 55BLH, 60BLH, 63BLH, 64BLH-mAbs: 69BLH, 70BLH) and 1:3 serially diluted Fab and mAbs from 60 nM to 0.74 nM (Fabs: 59BLH, 66BLH, 67BLH—mAbs: 74BLH, 75BLH, 78BLH, 79BLH, 81BLH, 82BLH) including 0 nM. The binding data was double referenced by subtraction of signal from a reference flow cell and the 0 nM injections for evaluation of Fabs and mAbs respectively. Binding rate constants were calculated/determined by fitting the data with a 1:1 binding model (Cytiva Biacore T200 Evaluation software 3.0).

The target in assay [5] is T1, human LAP-TGFB1 Fc fusion. Put plainly: SPR pH 6.0, antigen captured on Fab 54BLH.
Text: as §1, §2

The target of assay [6] is T1, human LAP-TGFB1 Fc fusion. Put plainly: SPR pH 7.4, antigen-Fc captured, Fab analyte.
For assay [7], the target named is T1, human LAP-TGFB1 Fc fusion. Put plainly: SPR pH 6.0, antigen-Fc captured, Fab analyte. On the procedure:
A Series S CM4 sensor chip (Cytiva, catalog BR100534) was immobilized with an anti-human Fc capture antibody following the kit protocol (Cytiva, catalog BR100839) on a Biacore T200 instrument with 1× HBS-EP+ (Teknova, catalog H8022). […] The binding data were double referenced by subtraction of signal from a reference (capture surface only) flow cell and the 0 nM Fab injection. Binding rate constants were determined by fitting the data with a 1:1 binding model (Cytiva Biacore T200 Evaluation software 3.0).

Assay [8] concerns the target T1, human LAP-TGFB1 Fc fusion. Put plainly: SPR pH 7.4, antigen-Fc captured, Fab analyte. The source holds these as a separate data set.

T1 sequence (chain, as listed by the source limits assumed): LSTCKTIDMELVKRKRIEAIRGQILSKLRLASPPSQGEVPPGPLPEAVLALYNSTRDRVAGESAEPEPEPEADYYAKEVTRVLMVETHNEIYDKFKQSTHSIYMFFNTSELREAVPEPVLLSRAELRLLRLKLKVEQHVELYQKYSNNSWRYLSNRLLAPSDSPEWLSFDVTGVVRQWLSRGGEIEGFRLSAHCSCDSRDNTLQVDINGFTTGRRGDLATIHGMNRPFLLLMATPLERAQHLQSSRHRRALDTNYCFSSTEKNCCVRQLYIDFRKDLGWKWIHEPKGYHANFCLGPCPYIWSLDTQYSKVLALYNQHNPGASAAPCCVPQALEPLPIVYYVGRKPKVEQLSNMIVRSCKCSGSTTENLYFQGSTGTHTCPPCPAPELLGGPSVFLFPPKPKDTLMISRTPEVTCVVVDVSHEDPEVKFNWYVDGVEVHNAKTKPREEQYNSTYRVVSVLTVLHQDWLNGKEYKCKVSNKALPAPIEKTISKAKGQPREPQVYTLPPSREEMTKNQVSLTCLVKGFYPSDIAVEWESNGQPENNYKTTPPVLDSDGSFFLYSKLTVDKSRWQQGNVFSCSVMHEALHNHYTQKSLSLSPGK

B1: 64BLH (Fab, V domains shown)
VH: EVQLVQSGAEVKKPGASVKVSCKASGYTFTSYDMHWVRQAPGQGLEWMGRIDPQSGGIKYAQKFQGRATLTVDTSTSTAYMELSRLRSDDTAVYYCARWDYGGYFDVWGQGTLVTVSS
VL: DIQMTQSPSSLSASVGDRVTITCRASQDIYNYLNWYQQKPGKAVKLLIYYTSVLETGVPSRFSGSGSGTDYTLTISSLQPEDFATYFCQQGDTLPWTFGQGTKLEIK
notes: also called 16BLM Fab
For B1, in assay [1], the “Fold change in KD from pH 7.4 to pH 6” value is 0.3 fold. In addition, the binding result in assay [2] and in assay [3] was “no binding (tested: 1000 nM Fab)” each time. The dissociation constant Kd in assay [4] was 62 pM; in assay [5], 182 pM; in assay [6], 77 pM; in assay [7], 24 pM; in assay [8], 77 pM. Besides, the koff in assay [4] is 0.000939 s⁻¹; in assay [5], 0.00194 s⁻¹; in assay [6] it was 0.0005 s⁻¹; in assay [7], 0.000843 s⁻¹; in assay [8], 0.0005 s⁻¹. The on-rate (kon) in assay [4] is 1.53e+07 M⁻¹ s⁻¹; in assay [5] it was 1.07e+07 M⁻¹ s⁻¹; in assay [6] it was 6.51e+06 M⁻¹ s⁻¹; in assay [7] it was 3.49e+07 M⁻¹ s⁻¹; in assay [8], 6.51e+06 M⁻¹ s⁻¹. For the same molecule, the “Fold improvement in KD” value in assay [6] worked out at 760 fold.

B2: 68BLH (Fab, V domains shown)
VH: EVQLVQSGAEVKKPGASVKVSCKASGYTFTSYDMHWVRQAPGQGLEWMGRIDPQSGGEKYAQKFQGRATLTVDTSTSTAYMELSRLRSDDTAVYYCARYDYGGYFDVWGQGTLVTVSS
VL: DIQMTQSPSSLSASVGDRVTITCRASQDIYNYLNWYQQKPGKAVKLLIYYTSRLETGVPSRFSGSGSGTDYTLTISSLQPEDFATYFCQQGDTLPWTFGQGTKLEIK
notes: also called 20BLM Fab
In the case of B2, the “Fold change in KD from pH 7.4 to pH 6” value in assay [1] amounted to 1.2 fold. Besides, the binding result in assay [2] is “no binding (tested: 1000 nM Fab)”. Besides, the binding result in assay [3] is “no binding (tested: 1000 nM Fab)”. For the same molecule, in assay [6], the “Fold improvement in KD” value was found to be 134 fold, the Kd was determined as 438 pM, the off-rate constant (koff) stood at 0.00331 s⁻¹ and the kon came out at 7.57e+06 M⁻¹ s⁻¹. In addition, in assay [7], the dissociation constant Kd was 508 pM, the koff was determined as 0.00454 s⁻¹ and the association rate constant (kon) came out at 8.94e+06 M⁻¹ s⁻¹. In addition, in assay [8], the dissociation constant Kd is 438 pM, the off-rate (koff) is 0.00331 s⁻¹ and the kon worked out at 7.57e+06 M⁻¹ s⁻¹.

B3: 61BLH (Fab, V domains shown)
VH: EVQLVQSGAEVKKPGASVKVSCKASGYTFTSYDMHWVRQAPGQGLEWMGRIDPQTGDIKYAQKFQGRATLTVDTSTSTAYMELSRLRSDDTAVYYCARWDYGGQFDVWGQGTLVTVSS
VL: DIQMTQSPSSLSASVGDRVTITCRASQDIYNYLNWYQQKPGKAVKLLIYYTSGLETGVPSRFSGSGSGTDYTLTISSLQPEDFATYFCQQGDTLPWTFGQGTKLEIK
notes: also called 13BLM Fab
As to B3, in assay [1], the “Fold change in KD from pH 7.4 to pH 6” value worked out at 2.4 fold. Further, in assay [2], the binding result is “no binding (tested: 1000 nM Fab)”. The binding result in assay [3] is “no binding (tested: 1000 nM Fab)”. In assay [6], the “Fold improvement in KD” value was found to be 4500 fold, the Kd was determined as 13 pM, the koff turned out to be 4.52e-05 s⁻¹ and the kon came to 3.57e+06 M⁻¹ s⁻¹. In assay [7], binding was put at a Kd of 31 pM, the koff turned out to be 0.000121 s⁻¹ and the kon came to 3.91e+06 M⁻¹ s⁻¹. In assay [8], this molecule displayed a dissociation constant Kd of 13 pM, a koff of 4.52e-05 s⁻¹ and a kon of 3.57e+06 M⁻¹ s⁻¹.

B4: 57BLH (Fab, V domains shown)
VH: EVQLVQSGAEVKKPGASVKVSCKASGYTFTSYDMHWVRQAPGQGLEWMGRIDPISGGIKYAQKFQGRATLTVDTSTSTAYMELSRLRSDDTAVYYCARWDYGGYFDVWGQGTLVTVSS
VL: DIQMTQSPSSLSASVGDRVTITCRASQDIFNYLNWYQQKPGKAVKLLIYYTSHLETGVPSRFSGSGSGTDYTLTISSLQPEDFATYFCQQGDTLPWTFGQGTKLEIK
notes: also called 09BLM Fab
As for B4, the “Fold change in KD from pH 7.4 to pH 6” value in assay [1] was found to be 1.3 fold. The binding result in assay [2] is reported as “no binding (tested: 1000 nM Fab)”. Besides, the binding result in assay [3] was “no binding (tested: 1000 nM Fab)”. Also, in assay [6], the “Fold improvement in KD” value is 723 fold, the equilibrium dissociation constant (Kd) was 81 pM, the off-rate (koff) was 0.00049 s⁻¹ and the on-rate constant (kon) stood at 6.06e+06 M⁻¹ s⁻¹. Further, in assay [7], the Kd was determined as 106 pM, the off-rate constant (koff) was 0.00159 s⁻¹ and the on-rate constant (kon) came out at 1.54e+07 M⁻¹ s⁻¹. In assay [8], this molecule gave a Kd of 81 pM, a koff of 0.00049 s⁻¹ and an association rate constant (kon) of 6.06e+06 M⁻¹ s⁻¹.

B5: 56BLH (Fab, V domains shown)
VH: EVQLVQSGAEVKKPGASVKVSCKASGYTFTSYDMHWVRQAPGQGLEWMGRIDPQSGGTKYAQKFQGRATLTVDTSTSTAYMELSRLRSDDTAVYYCARWDYGGQFDVWGQGTLVTVSS
VL: DIQMTQSPSSLSASVGDRVTITCRASQDIYNYLNWYQQKPGKAVKLLIYYTSGLETGVPSRFSGSGSGTDYTLTISSLQPEDFATYFCQQGDTLPWTFGQGTKLEIK
notes: also called 08BLM Fab
For B5, the “Fold change in KD from pH 7.4 to pH 6” value in assay [1] turned out to be 1.7 fold. Also, the binding result in assay [2] was “no binding (tested: 1000 nM Fab)”. In addition, in assay [3], the binding result was “no binding (tested: 1000 nM Fab)”. Further, in assay [6], the “Fold improvement in KD” value worked out at 9760 fold, the dissociation constant Kd amounted to 6 pM, the off-rate (koff) stood at 2.57e-05 s⁻¹ and the kon was 4.53e+06 M⁻¹ s⁻¹. Further, in assay [7], the affinity, expressed as Kd, was 10 pM; the koff was 5.56e-05 s⁻¹; the kon was 5.55e+06 M⁻¹ s⁻¹. Besides, in assay [8], the Kd stood at 6 pM, the koff was found to be 2.57e-05 s⁻¹ and the kon came to 4.53e+06 M⁻¹ s⁻¹.

B6: 58BLH (Fab, V domains shown)
VH: EVQLVQSGAEVKKPGASVKVSCKASGYTFTSYDMHWVRQAPGQGLEWMGRIDPQSGGTKYAQKFQGRATLTVDTSTSTAYMELSRLRSDDTAVYYCARWDYGGYFDVWGQGTLVTVSS
VL: DIQMTQSPSSLSASVGDRVTITCRASQDIYNYLNWYQQKPGKAVKLLIYYTSVLETGVPSRFSGSGSGTDYTLTISSLQPEDFATYFCQQGDTLPWTFGQGTKLEIK
notes: also called 10BLM Fab
Consider B6, for which the “Fold change in KD from pH 7.4 to pH 6” value in assay [1] came to 1.6 fold. Further, the binding result in assay [2] was “no binding (tested: 1000 nM Fab)”. Moreover, in assay [3], the binding result is given as “no binding (tested: 1000 nM Fab)”. In assay [6], the “Fold improvement in KD” value amounted to 1100 fold, the Kd came out at 53 pM, the dissociation rate constant (koff) was determined as 0.000313 s⁻¹ and the kon is 5.93e+06 M⁻¹ s⁻¹. In assay [7], this molecule came in with a Kd of 86 pM, a koff of 0.000591 s⁻¹ and an on-rate constant (kon) of 6.88e+06 M⁻¹ s⁻¹. Also, in assay [8], the dissociation constant (Kd) turned out to be 53 pM, the koff is 0.000313 s⁻¹ and the kon came out at 5.93e+06 M⁻¹ s⁻¹.

B7: 62BLH (Fab, V domains shown)
VH: EVQLVQSGAEVKKPGASVKVSCKASGYTFTSYDTHWVRQAPGQGLEWMGRIDPQSGGIKYAQKFQGRATLTVDTSTSTAYMELSRLRSDDTAVYYCARWDYGGYFDVWGQGTLVTVSS
VL: DIQMTQSPSSLSASVGDRVTITCRASQDIYNYLNWYQQKPGKAVKLLIYYTSYLETGVPSRFSGSGSGTDYTLTISSLQPEDFATYFCQQGDTLPWTFGQGTKLEIK
notes: also called 14BLM Fab
As to B7, the “Fold change in KD from pH 7.4 to pH 6” value in assay [1] stood at 1.2 fold. Besides, in assay [2], the binding result is “no binding (tested: 1000 nM Fab)”. Also, the binding result in assay [3] is “no binding (tested: 1000 nM Fab)”. In addition, in assay [6], the “Fold improvement in KD” value is 222 fold, the Kd stood at 246 pM, the off-rate constant (koff) was 0.00124 s⁻¹ and the kon amounted to 4.69e+06 M⁻¹ s⁻¹. In assay [7], this molecule gave an equilibrium dissociation constant (Kd) of 290 pM, an off-rate (koff) of 0.00168 s⁻¹ and an on-rate constant (kon) of 5.8e+06 M⁻¹ s⁻¹. In assay [8], this molecule registered a Kd of 246 pM, an off-rate constant (koff) of 0.00124 s⁻¹ and an on-rate constant (kon) of 4.69e+06 M⁻¹ s⁻¹.

Broadly, the Kd is the free concentration of one partner at which half of the binding sites on the other are occupied at equilibrium, for simple one-to-one binding. As a reminder, the koff is the first-order rate constant of dissociation. Low values mean a long-lived complex, high ones a short-lived complex. What is called kon is a measure of how fast the partners come together. Low readings indicate slow association, high ones fast association.
